These are literature values, as cited in article PMC12018048, “Intranasal kisspeptin administration rapidly stimulates gonadotropin release in humans” (eBioMedicine, 2025).

On the set-up of this data set: method as in PMID 37467734. The note with it: intravenous and subcutaneous routes, over 1000 healthy men and women and patients; cited from earlier work.

Turning to Kisspeptin-54, the Adverse effects entry is given as “without any observed adverse effects”.
